Experiment [1] addresses tissue factor (TF) antigen (UniProt P13726). Nature of the experiment: SPR (ProteOn XPR36), His-tagged Fab captured on anti-penta His, TF as analyte, 1:1 fit.
Experiment [2] shares this target. Nature of the experiment: SPR; reference wild-type D3H44 Fab. In general terms: Surface plasmon resonance follows binding to a sensor surface in real time, without labels.
The target is the same in experiment [3]. Nature of the experiment: SPR, Fab captured on anti-penta-His, TF as analyte, 1:1 fit.
Experiment [4] has the same target. Nature of the experiment: SPR, Fab captured on anti-penta His, TF injected, 1:1 fit.
Experiment [5] has the same target. Nature of the experiment: SPR (ProteOn), Fab captured on anti-penta-His surface, TF injected, 1:1 fit.
Experiment [6] has the same target. Nature of the experiment: SPR (ProteOn), Fab captured on anti-penta-His surface, TF injected; reference wild-type D3H44 Fab.
For experiment [7] the target is unchanged. Nature of the experiment: SPR (ProteOn XPR36): His-tagged Fab captured on anti-penta-His surface, TF as analyte, 1:1 fit.
Experiment [8] has the same target. Nature of the experiment: SPR (ProteOn XPR36), Fab captured on anti-penta His surface, TF injected as analyte, 1:1 model.
For experiment [9] the target is unchanged. Nature of the experiment: SPR, same assay; reference wild-type D3H44 Fab.

Broadly, the Kd is the equilibrium constant for the complex coming apart. Read a high Kd as weaker binding.

Chain of tissue factor (TF) antigen (P13726 33-251 limits assumed): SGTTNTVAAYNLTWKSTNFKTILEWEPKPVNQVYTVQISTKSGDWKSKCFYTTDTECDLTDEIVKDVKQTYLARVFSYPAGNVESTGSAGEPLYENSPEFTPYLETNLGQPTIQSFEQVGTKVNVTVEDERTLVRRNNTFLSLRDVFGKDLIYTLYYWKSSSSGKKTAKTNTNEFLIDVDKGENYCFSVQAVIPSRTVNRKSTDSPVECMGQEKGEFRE

In [1], “D3H44 Fab heterodimer, H1 A139C_C233S / L1 F116C_C214S (H1L1 Fab of LCCA Set # 9041)” registered a Kd of 0.14 nM.
On the same count and under the same terms, then “D3H44 Fab heterodimer, H1 F122C_C233S / L1 S121C_C214S (H1L1 Fab of LCCA Set # 9043)”, with 0.16 nM.
For “D3H44 Fab heterodimer, H1 P175C_C233S / L1 S162C_C214S (H1L1 Fab of LCCA Set # 9044)”, the Kd in experiment [1] stood at 0.18 nM.
For “D3H44 Fab heterodimer, H L124E_L143E_K145T / L Q124K_V133G_Q160K_S176R”, the Change in KD with respect to wild type (-(log(KD design) - log(KD wt))) in experiment [2] and in experiment [3] was -0.12 throughout. In addition, the Kd in [3] and in experiment [4] was 0.2 nM each time.
In the case of “D3H44 Fab heterodimer, H L124R_D146N_Q179K / L Q124E_V133G_S176D_T178E_T180E”, the Change in KD with respect to wild type (-(log(KD design) - log(KD wt))) in [2] and in [3] was -0.1 each time. In addition, the Kd in [3] and in experiment [4] was 0.2 nM each time.
Consider “D3H44 Fab heterodimer, H L124R_D146N_Q179K / L V133G_Q160E_S176D_T180E”, for which the Change in KD with respect to wild type (-(log(KD design) - log(KD wt))) in experiment [2] is -0.04. Besides, the Kd in experiment [4] came to 0.17 nM.
The corresponding values for “D3H44 Fab heterodimer, H L124R_D146N_Q179K / L V133G_S176D_T178E_T180E” are -0.01 and 0.16 nM.
On to “D3H44 Fab heterodimer, H L124R_Q179K / L Q124E_V133G_S176D_T178E_T180E”, for which the Change in KD with respect to wild type (-(log(KD design) - log(KD wt))) in experiment [2] and in experiment [3] was -0.15 in each case. For the same substance, the Kd in experiment [3] and in [4] was 0.22 nM throughout.
For “D3H44 Fab heterodimer, H L124R_Q179K / L V133G_Q160E_S176D_T180E”, the Change in KD with respect to wild type (-(log(KD design) - log(KD wt))) in [2] is -0.08. In experiment [4], this substance gave a Kd of 0.19 nM.
On to “D3H44 Fab heterodimer, H L124R_Q179K / L V133G_S176D_T178E_T180E”, for which, in experiment [2], the Change in KD with respect to wild type (-(log(KD design) - log(KD wt))) was -0.16. The substance further showed a Kd in experiment [4] of 0.23 nM.
“D3H44 Fab heterodimer, H L124R_S186K / L Q124E_V133G_S176D_T178D_T180E”: the Change in KD with respect to wild type (-(log(KD design) - log(KD wt))) in [2] and in [3] was -0.23 in each case. Also, the Kd in experiment [3] and in [4] was 0.26 nM in each case.
As for “D3H44 Fab heterodimer, H L124R_S186K / L V133G_S176D_T178D_T180E”, the Change in KD with respect to wild type (-(log(KD design) - log(KD wt))) in experiment [2] and in experiment [3] was -0.07 in each case. Besides, the Kd in experiment [3] and in experiment [4] was 0.18 nM in each case.
For the substance “D3H44 Fab heterodimer, H L124R_S186K / L V133G_S176D_T178E_T180E”, the Change in KD with respect to wild type (-(log(KD design) - log(KD wt))) in experiment [2] and in experiment [3] was -0.17 in each case. The Kd in experiment [3] and in experiment [4] was 0.23 nM each time.
In the case of “D3H44 Fab heterodimer, H L124R_S186R / L Q124E_V133G_S176D_T178D_T180E”, the Change in KD with respect to wild type (-(log(KD design) - log(KD wt))) in [2] and in experiment [3] was -0.21 throughout. Further, the Kd in experiment [3] and in experiment [4] was 0.26 nM throughout.
For “D3H44 Fab heterodimer, H L124R_S186R / L V133G_S176D_T178D_T180E”, the Change in KD with respect to wild type (-(log(KD design) - log(KD wt))) in experiment [2] and in experiment [3] was -0.04 throughout. Besides, the Kd in experiment [3] and in experiment [4] was 0.17 nM in each case.
In the case of “D3H44 H1L1 Fab heterodimer of LCCA Set # 9185 (H1 L124E_L143D_K145M; L1 Q124K_V133G_S176R_T178R)”, the Kd in [5] was 0.13 nM. This substance had a Change in median values of KD of h1l1 Fab heterodimer compared to wild type (-(log(KD design)-log(KD wt))) in [6] of 0.09.
The corresponding values for “D3H44 H1L1 Fab heterodimer of LCCA Set # 9270 (H1 L124E_L143E_K145M; L1 Q124K_V133G_S176R_T178R)” are 0.31 nM and -0.29.
The corresponding values for “D3H44 H1L1 Fab heterodimer of LCCA Set # 9344 (H1 L124R_A125R; L1 V133G_S176D_T178D)” are 0.27 nM and -0.23.
On to “D3H44 H1L1 Fab heterodimer of LCCA Set # 9362 (H1 L124R_D146N_Q179K; L1 V133G_S176D_T178E_T180E)”, for which, in [5], the Kd worked out at 0.16 nM. The Change in median values of KD of h1l1 Fab heterodimer compared to wild type (-(log(KD design)-log(KD wt))) in experiment [6] is -0.01.
The matching figures for “D3H44 H1L1 Fab heterodimer of LCCA Set # 9538 (H1 L124R_S186R; L1 V133G_S176D_T178D_T180E)”: 0.17 nM and -0.04.
In turn, “D3H44 H1L1 Fab heterodimer of LCCA Sets # 9176, 9178 and 9179 (H1 L124E_L143D_K145M; L1 Q124K_V133G_S176R_T178K)” gave a Kd in [5] of 0.22 nM. Also, the Change in median values of KD of h1l1 Fab heterodimer compared to wild type (-(log(KD design)-log(KD wt))) in experiment [6] was -0.15.
In [5], “D3H44 H1L1 Fab heterodimer of LCCA Sets # 9237, 9236, 9234, 9239, 9243 and 9240 (H1 L124E_L143D_K145T; L1 V133G_S176R_T178K)” registered a Kd of 0.22 nM. Further, the Change in median values of KD of h1l1 Fab heterodimer compared to wild type (-(log(KD design)-log(KD wt))) in experiment [6] is -0.15.
The corresponding values for “D3H44 H1L1 Fab heterodimer of LCCA Sets # 9349 and 9348 (H1 L124R_A139G_V190A; L1 V133G_L135W_S176D)” are 0.15 nM and 0.03.
The corresponding values for “D3H44 H1L1 Fab heterodimer of LCCA Sets # 9505 and 9503 (H1 L124R_S186R; L1 Q124E_V133G_S176D_T178D_T180E)” are 0.26 nM and -0.21.
The corresponding values for “D3H44 H1L1 Fab heterodimer of LCCA Sets # 9521 and 9520 (H1 L124R_S186R; L1 V133G_S176D_T178D)” are 0.2 nM and -0.1.
Turning to “D3H44 H1L1 Fab heterodimer of LCCA set 9060 (H1 A139W_L143E_K145T_Q179E; L1 F116A_Q124R_L135V_T178R)”, in [7], the Change in median values of KD of h1|1 Fab heterodimer compared to wild type (-(log(KD design)-log(KD wt))) was determined as 0.04 log units and the Kd was 0.14 nM.
The matching figures for “D3H44 H1L1 Fab heterodimer of LCCA set 9066 (H1 F122C_L124E; L1 Q124C_V133G_S176R)”: -0.04 log units and 0.17 nM.
Take “D3H44 H1L1 Fab heterodimer of LCCA set 9082 (H1 K145T_Q179E; L1 S131K)”: in experiment [7], the Change in median values of KD of h1|1 Fab heterodimer compared to wild type (-(log(KD design)-log(KD wt))) is -0.01 log units and the Kd is 0.16 nM.
In experiment [7], “D3H44 H1L1 Fab heterodimer of LCCA sets 9101 and 9100 (H1 L124A_Q179K; L1 Q124E_V133W_T180E)” had a Change in median values of KD of h1|1 Fab heterodimer compared to wild type (-(log(KD design)-log(KD wt))) of 0.1 log units and a Kd of 0.12 nM.
The matching figures for “D3H44 H1L1 Fab heterodimer of LCCA sets 9571 and 9572 (H1 L124W_L143F_K145T_Q179E; L1 S131K_V133A_S176T_T178L)”: -0.21 log units and 0.26 nM.
On to “D3H44 H1L1 Fab heterodimer of LCCA sets 9786 and 9785 (H1 Q179K; L1 Q124E_T178E_T180E)”, for which, in experiment [7], the Change in median values of KD of h1|1 Fab heterodimer compared to wild type (-(log(KD design)-log(KD wt))) was 0.1 log units and the Kd was determined as 0.13 nM.
In experiment [8], “H1L1 Fab heterodimer of LCCA set 9214 (D3H44 Fab, H1 L124E_L143D_K145T, L1 Q124K_V133G_S176R_T178K)” registered a Kd of 0.19 nM. In addition, the change in median KD of H1L1 Fab heterodimer compared to wild type (-(log(KD design)-log(KD wt))) in [9] was -0.08.
The corresponding values for “H1L1 Fab heterodimer of LCCA set 9225 (D3H44 Fab, H1 L124E_L143D_K145T, L1 Q124K_V133G_S176R_T178R)” are 0.16 nM and -0.02.
“H1L1 Fab heterodimer of LCCA set 9260 (D3H44 Fab, H1 L124E_L143E_K145M, L1 Q124K_V133G_S176R_T178K)” gave a Kd in experiment [8] of 0.24 nM. For the same substance, in [9], the change in median KD of H1L1 Fab heterodimer compared to wild type (-(log(KD design)-log(KD wt))) was -0.19.
The corresponding values for “H1L1 Fab heterodimer of LCCA set 9269 (D3H44 Fab, H1 L124E_L143E_K145M, L1 Q124K_V133G_S176R_T178R)” are 0.31 nM and -0.29.
The corresponding values for “H1L1 Fab heterodimer of LCCA set 9351 (D3H44 Fab, H1 L124R_D146N_Q179K, L1 Q124E_V133G_S176D_T178E_T180E)” are 0.2 nM and -0.1.

For the origin of these results see patent US11306156.
